Assays:
[1] = molecular target: MHC class I H2-K^d-… (HIV-1; mouse) (UniProt P01902)
[2] = molecular target: MHC class I H2-K^d-… (HIV-1; mouse) (UniProt P01902); experiment: H2-K^d-… tetramer staining of splenocytes, flow cytometry

Substance | IFN-γ ELISPOT (fold against the p24fc-immunized group) [1] | frequency of p24-specific tetramer^+ CD8^+ T cells [2]
splenocytes (T cells) of mice immunized with human sΔ42PD1-p24fc DNA (cells without a defined receptor) | 10 | 
splenocytes (T cells) of mice vaccinated with msΔ42PD1-p24fc DNA (cells without a defined receptor) |  | 17%

From US20140302070A1
